Source: patent publication US20220323583A1, “Pharmaceutical Formulations of Bi-Specific Diabodies and Use of the Same” (MacroGenics, Inc., priority 2019, published 2022)

Columns and labels:
Cynomolgus CD3ε/δ = Cynomolgus CD3ε/δ (Macaca fascicularis, UniProt Q95LI5); assay: Binding of DART-A to CD3 (ka, kd, KD); design: species or system cynomolgus monkey
Human CD123-His = target: T1, Human CD123-His (Homo sapiens, UniProt P26951); assay: Binding of DART-A to CD123 (ka, kd, KD)
T1 sequence (P26951 19-378): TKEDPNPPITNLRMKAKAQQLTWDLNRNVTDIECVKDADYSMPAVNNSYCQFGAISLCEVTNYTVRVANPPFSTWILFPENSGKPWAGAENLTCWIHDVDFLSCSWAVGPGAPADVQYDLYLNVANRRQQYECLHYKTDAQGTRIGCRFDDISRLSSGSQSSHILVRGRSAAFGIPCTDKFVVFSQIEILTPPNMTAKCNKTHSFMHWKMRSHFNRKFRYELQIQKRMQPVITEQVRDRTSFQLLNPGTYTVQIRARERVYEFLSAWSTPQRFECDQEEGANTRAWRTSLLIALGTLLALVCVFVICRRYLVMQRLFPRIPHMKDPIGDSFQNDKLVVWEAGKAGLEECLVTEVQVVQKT

Cynomolgus CD123-His = assay: Binding of DART-A to CD123 (ka, kd, KD); design: species or system cynomolgus monkey
Molm13 = assay: Redirected killing of target cell line; format: cell-based
TF-1 = assay: Redirected killing of target cell line; format: cell-based
HT29 = assay: Redirected killing of target cell line; format: cell-based; details: HT29 (CD123 negative)
MOLM13 tumors = assay: Human T cells and Molm13 tumor cells injected subcutaneously into NSG mice; format: in vivo, NOD/SCID gamma (NSG) knockout mice
Procedure: A dose of 0.004 mg/kg and higher was active in the MOLM13 model.

[1] = system: pDCs in cynomolgus monkey PBMCs; assay: pDC depletion in PBMCs; format: cell-based
Text: (§1) Upregulation of granzyme B and perforin levels in both CD8 and CD4 T cells was observed.

pDCs in human PBMCs = assay: pDC depletion in PBMCs; format: cell-based
Text: as §1

[2] = Sub-visible particle count, light obscuration (HIAC); format: physicochemical; details: for Subvisible Particles by USP <788> ≥2 μm/mL / Subvisible Particles by USP <788> ≥10 μm/mL / Subvisible Particles by USP <788> ≥25 μm/mL: Stabilizer 2; for Particle Counts/mL ≥10 μm / Particle Counts/mL ≥25 μm: Study 1, dual-pump infusion
[3] = system: soluble recombinant human CD3 (shCD3-Fos-Jun); assay: CD3 binding ELISA (relative potency); details: Relative Potency vs DART-A reference standard, 1250 ng/mL dosing solution, Stabilizer 2
Text: The two CD3 chains (delta and gamma) contain either the Fos protein or the Jun protein to enhance proper folding and functionality of the CD3 complex. […] The soluble CD3-Fos-Jun, was coated on the surface of an ELISA plate. […] Quantification of bound probe antibody was achieved by addition of a colorimetric AP substrate (AP-Yellow 1 Component Substrate). Oxidation of AP-Yellow by AP yields a colored product that can be read at 405±10 nm. The assay was quantified by the intensity of color, measured using a spectrophotometer set to an optimal wavelength of 405±10 nm. Data were fitted to a four-parameter model with the following variable constraints: the maximum, minimum and slope of each dose response curve is set to be shared between all dose response curves on the plate; the EC50 was determined independently for each curve.

pH = format: physicochemical; details: for pH: normal saline IV bag with Stabilizer 2
Visual appearance = format: physicochemical; details: for Appearance / Appearance, Particulates: 1250 ng/mL dosing solution
[4] = 10 ng/mL dosing solution, Post Infusion (Infusion Time = 48 Hrs)
[5] = 10 ng/mL dosing solution, Post Storage (T = 72 Hrs), room temperature
[6] = 10 ng/mL dosing solution, T = 0
[7] = 20 ng/mL dosing solution, Post Infusion (Infusion Time = 96 Hrs)
[8] = 20 ng/mL dosing solution, Post Storage (T =72 Hrs), room temperature
[9] = 20 ng/mL dosing solution, T = 0
[10] = 1250 ng/mL dosing solution, Post Infusion (Infusion Time = 48 Hrs)
[11] = 1250 ng/mL dosing solution, Post Storage (T = 72 Hrs), room temperature
[12] = 1250 ng/mL dosing solution, T = 0
[13] = High (5000 ng/mL), T = 24 hours
[14] = High (5000 ng/mL), T = 48 hours
[15] = High (5000 ng/mL), T = 72 hours
[16] = 10 ng/mL dosing solution, Stabilizer 2, Post Infusion (Infusion Time = 48 Hrs)
[17] = 10 ng/mL dosing solution, Stabilizer 2, Post Storage (T = 72 Hrs), room temperature
[18] = 10 ng/mL dosing solution, Stabilizer 2, T = 0
[19] = 20 ng/mL dosing solution, Stabilizer 2, Post Infusion (Infusion Time = 96 Hrs)
[20] = 20 ng/mL dosing solution, Stabilizer 2, Post Storage (T =72 Hrs), room temperature
[21] = 20 ng/mL dosing solution, Stabilizer 2, T = 0
[22] = Stabilizer 2, Post Infusion (Infusion Time = 48 Hrs)
[23] = Stabilizer 2, Post Storage (T = 72 Hrs), room temperature

Chain of soluble recombinant human CD3 (shCD3-Fos-Jun) (P07766 23-126 limits assumed): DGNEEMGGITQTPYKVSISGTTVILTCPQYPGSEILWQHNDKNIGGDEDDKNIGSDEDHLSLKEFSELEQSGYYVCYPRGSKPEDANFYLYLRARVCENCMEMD
Chain of Cynomolgus CD3ε/δ (Q95LI5 22-117 limits assumed): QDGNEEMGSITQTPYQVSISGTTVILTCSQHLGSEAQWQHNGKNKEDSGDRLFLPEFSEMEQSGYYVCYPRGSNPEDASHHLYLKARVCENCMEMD
Chain of Cynomolgus CD3ε/δ (Q95LI8 22-105 partner limits assumed): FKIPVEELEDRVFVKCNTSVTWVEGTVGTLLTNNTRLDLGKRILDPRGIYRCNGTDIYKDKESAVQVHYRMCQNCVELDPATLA

B1: DART-A: sequence-optimized CD123×CD3 bispecific diabody; chains SEQ ID NO:42 and SEQ ID NO:44 covalently bonded by a disulfide bond (protein)
chain 1: QAVVTQEPSLTVSPGGTVTLTCRSSTGAVTTSNYANWVQQKPGQAPRGLIGGTNKRAPWTPARFSGSLLGGKAALTITGAQAEDEADYYCALWYSNLWVFGGGTKLTVLGGGGSGGGGEVQLVQSGAELKKPGASVKVSCKASGYTFTDYYMKWVRQAPGQGLEWIGDIIPSNGATFYNQKFKGRVTITVDKSTSTAYMELSSLRSEDTAVYYCARSHLLRASWFAYWGQGTLVTVSSGGCGGGEVAALEKEVAALEKEVAALEKEVAALEK
chain 2: DFVMTQSPDSLAVSLGERVTMSCKSSQSLLNSGNQKNYLTWYQQKPGQPPKLLIYWASTRESGVPDRFSGSGSGTDFTLTISSLQAEDVAVYYCQNDYSYPYTFGQGTKLEIKGGGSGGGGEVQLVESGGGLVQPGGSLRLSCAASGFTFSTYAMNWVRQAPGKGLEWVGRIRSKYNNYATYYADSVKDRFTISRDDSKNSLYLQMNSLKTEDTAVYYCVRHGNFGNSYVSWFAYWGQGTLVTVSSGGCGGGKVAALKEKVAALKEKVAALKEKVAALKE
modifications: interchain disulfide bond; First Polypeptide Chain of DART-A; Second Polypeptide Chain of DART-A
ka (± SD) (Cynomolgus CD3ε/δ): 5.5 (± 0.5) × 10^5 M^−1s^−1
kd (± SD) (Cynomolgus CD3ε/δ): 5.0 (± 0.9) × 10^−3 s^−1
Kd (Cynomolgus CD3ε/δ; read-out: KD (± SD)): 9.2 ± 2.3 nM
ka (± SD) (Human CD123-His): 1.6 (± 0.4) × 10^6 M^−1s^−1
kd (± SD) (Human CD123-His): 1.9 (± 0.4) × 10^−4 s^−1
ka (± SD) (Cynomolgus CD123-His): 1.5 (± 0.3) × 10^6 M^−1s^−1
kd (± SD) (Cynomolgus CD123-His): 4.0 (± 0.7) × 10^−4 s^−1
Max % Killing (Molm13): 43%
Max % Killing (TF-1): 46%
Max % Killing (HT29): No activity
EC50, redirected killing (HT29; E:T = 10:1): No activity
MOLM13 tumor growth (MOLM13 tumors; 0.16, 0.5, 0.2, 0.1, 0.02 and 0.004 mg/kg dose levels): significantly inhibited
dose active in the MOLM13 model (MOLM13 tumors; mouse, in vivo): ≥ 4 µg/kg
depletion of pDCs [1]: capable of mediating the depletion of pDCs cells
depletion of pDCs (pDCs in human PBMCs): capable of mediating the depletion of pDCs cells
Subvisible Particles by USP <788> ≥2 μm/mL [2, 4]: 140 mL⁻¹
Subvisible Particles by USP <788> ≥10 μm/mL [2, 4]: 2 mL⁻¹
Subvisible Particles by USP <788> ≥25 μm/mL [2, 4]: 1 mL⁻¹
Subvisible Particles by USP <788> ≥2 μm/mL [2, 5]: 192 mL⁻¹
Subvisible Particles by USP <788> ≥10 μm/mL [2, 5]: 10 mL⁻¹
Subvisible Particles by USP <788> ≥25 μm/mL [2, 5]: 1 mL⁻¹
Subvisible Particles by USP <788> ≥2 μm/mL [2, 6]: 206 mL⁻¹
Subvisible Particles by USP <788> ≥10 μm/mL [2, 6]: 7 mL⁻¹
Subvisible Particles by USP <788> ≥25 μm/mL [2, 6]: 1 mL⁻¹
Subvisible Particles by USP <788> ≥2 μm/mL [2, 7]: 85 mL⁻¹
Subvisible Particles by USP <788> ≥10 μm/mL [2, 7]: 9 mL⁻¹
Subvisible Particles by USP <788> ≥25 μm/mL [2, 7]: 3 mL⁻¹
Subvisible Particles by USP <788> ≥2 μm/mL [2, 8]: 412 mL⁻¹
Subvisible Particles by USP <788> ≥10 μm/mL [2, 8]: 8 mL⁻¹
Subvisible Particles by USP <788> ≥25 μm/mL [2, 8]: 0 mL⁻¹
Subvisible Particles by USP <788> ≥2 μm/mL [2, 9]: 344 mL⁻¹
Subvisible Particles by USP <788> ≥10 μm/mL [2, 9]: 8 mL⁻¹
Subvisible Particles by USP <788> ≥25 μm/mL [2, 9]: 0 mL⁻¹
Subvisible Particles by USP <788> ≥2 μm/mL [2, 10]: 188 mL⁻¹
Subvisible Particles by USP <788> ≥10 μm/mL [2, 10]: 4 mL⁻¹
Subvisible Particles by USP <788> ≥25 μm/mL [2, 10]: 1 mL⁻¹
Subvisible Particles by USP <788> ≥2 μm/mL [2, 11]: 146 mL⁻¹
Subvisible Particles by USP <788> ≥10 μm/mL [2, 11]: 7 mL⁻¹
Subvisible Particles by USP <788> ≥25 μm/mL [2, 11]: 1 mL⁻¹
Subvisible Particles by USP <788> ≥2 μm/mL [2, 12]: 664 mL⁻¹
Subvisible Particles by USP <788> ≥10 μm/mL [2, 12]: 21 mL⁻¹
Subvisible Particles by USP <788> ≥25 μm/mL [2, 12]: 1 mL⁻¹
subvisible particle counts ≥2 μm, ≥10 μm and ≥25 μm post-infusion vs T=0 ([2]; Stabilizer 2 dosing solutions): did not increase
Particle Counts/mL ≥10 μm ([2]; High (5000 ng/mL), T = 0): 14 Counts/mL
Particle Counts/mL ≥25 μm ([2]; High (5000 ng/mL), T = 0): 1 Counts/mL
Particle Counts/mL ≥10 μm [2, 13]: 2 Counts/mL
Particle Counts/mL ≥25 μm [2, 13]: 1 Counts/mL
Particle Counts/mL ≥10 μm [2, 14]: 0 Counts/mL
Particle Counts/mL ≥25 μm [2, 14]: 0 Counts/mL
Particle Counts/mL ≥10 μm [2, 15]: 0 Counts/mL
Particle Counts/mL ≥25 μm [2, 15]: 0 Counts/mL
Particle Counts/mL ≥10 μm ([2]; Low (100 ng/mL), T = 0): 5 Counts/mL
Particle Counts/mL ≥25 μm ([2]; Low (100 ng/mL), T = 0): 0 Counts/mL
Particle Counts/mL ≥10 μm ([2]; Low (100 ng/mL), T = 24 hours): 4 Counts/mL
Particle Counts/mL ≥25 μm ([2]; Low (100 ng/mL), T = 24 hours): 1 Counts/mL
Particle Counts/mL ≥10 μm ([2]; Low (100 ng/mL), T = 48 hours): 7 Counts/mL
Particle Counts/mL ≥25 μm ([2]; Low (100 ng/mL), T = 48 hours): 0 Counts/mL
Particle Counts/mL ≥10 μm ([2]; Low (100 ng/mL), T = 72 hours): 1 Counts/mL
Particle Counts/mL ≥25 μm ([2]; Low (100 ng/mL), T = 72 hours): 0 Counts/mL
% Potency, CD3 binding ([3]; Post Infusion (Infusion Time = 48 Hrs)): 92%
% Potency, CD3 binding ([3]; Post Storage (T = 72 Hrs), room temperature): 101%
% Potency, CD3 binding ([3]; T = 0): 111%
pH (pH; [4]): 8.1
pH (pH; [5]): 8.1
pH (pH; [6]): 8.1
pH (pH; [7]): 7.9
pH (pH; [8]): 8.1
pH (pH; [9]): 8.1
pH (pH; [10]): 8.0
pH (pH; [11]): 8.0
pH (pH; [12]): 8.0
changes in pH, visual appearance and osmolality post-infusion vs T=0 (pH; Stabilizer 2 dosing solutions): no significant changes in pH, visual appearance, and osmolality
Visual Appearance (Visual appearance; [16]): C, L
Visual Appearance, Particulates (Visual appearance; [16]): FNP, FPP
Visual Appearance (Visual appearance; [17]): C, L
Visual Appearance, Particulates (Visual appearance; [17]): FNP, FPP
Visual Appearance (Visual appearance; [18]): C, L
Visual Appearance, Particulates (Visual appearance; [18]): FNP, FPP
Visual Appearance (Visual appearance; [19]): C, L
Visual Appearance, Particulates (Visual appearance; [19]): FNP, FPP
Visual Appearance (Visual appearance; [20]): C, L
Visual Appearance, Particulates (Visual appearance; [20]): FNP, FPP
Visual Appearance (Visual appearance; [21]): C, L
Visual Appearance, Particulates (Visual appearance; [21]): FNP, FPP
Appearance (Visual appearance; [22]): C, L
Appearance, Particulates (Visual appearance; [22]): FNP, FPP
Appearance (Visual appearance; [23]): C, L
Appearance, Particulates (Visual appearance; [23]): FNP, FPP
Appearance (Visual appearance; Stabilizer 2, T = 0): C, L
Appearance, Particulates (Visual appearance; Stabilizer 2, T = 0): FNP, FPP
Visual Appearance (Visual appearance; 0.1 mg/mL in Stabilizer 2 dosing solution, storage and administration): No change in visual appearance
visual appearance of dosing solutions (Visual appearance; Stabilizer 2 in saline bag, T=0, after 72 h storage and post infusion (48 or 96 hours)): clear, colorless with no visible particulates
